Laboratory results as given in PMC3984077.

Biological target: HasSCTD, the last 78 residues of the antisigma factor HasS of Serratia marcescens (Serratia marcescens) (UniProt Q79AD3)
Assay: NMR titration; 1H-15N HSQC, one partner 15N-labelled in turn, peak intensities before and after adding the unlabelled partner; 250 µM HasSCTD with 200, 400 or 800 µM signaling domain, or 100 µM 15N signaling domain with 250 µM HasSCTD; control with 400 µM periplasmic domain; sodium phosphate pH 7, 50 mM NaCl, 0.05% Zw, 15% D2O; 20°C

“signaling domain of the TonB-dependent outer membrane transporter HasR (from UniProt Q79AD2) (domain or fragment)” gave a reduction of the overall HSQC peak intensity of 15N HasSCTD of 35%.
